Results reported in patent publication US20180127735A1.

Legend:
[1] = target: thrombin (Homo sapiens (Human)) (UniProt P00734); assay: cell-based or functional assay
[2] = target: protein C (UniProt P04070)

| Substance | clotting time of fibrinogen by thrombin with thrombomodulin at saturating concentrations [1] [min] | enzyme-mediated conversion of protein C into activated protein C (aPC), thrombin in the absence of TM [2] |
| --- | --- | --- |
| full-length thrombomodulin (from UniProt P07204 19-575) (receptor) | < 305 | – |
| thrombin | – | minimal activated protein C (aPC) activity was generated |
